Measurements: IntAct's records for PubMed 29039417

B1: BBSome complex member BBS2 (Homo sapiens), Q9BXC9 (parent)
chain: MLLPVFTLKLRHKISPRMVAIGRYDGTHPCLAAATQTGKVFIHNPHTRNQHVSASRVFQSPLESDVSLLSINQAVSCLTAGVLNPELGYDALLVGTQTNLLAYDVYNNSDLFYREVADGANAIVLGTLGDISSPLAIIGGNCALQGFNHEGSDLFWTVTGDNVNSLALCDFDGDGKKELLVGSEDFDIRVFKEDEIVAEMTETEIVTSLCPMYGSRFGYALSNGTVGVYDKTSRYWRIKSKNHAMSIHAFDLNSDGVNELITGWSNGKVDARSDRTGEVIFKDNFSSAIAGVVEGDYRMDGHIQLICCSVDGEIRGYLPGTAEMRGNLMDTSAEQDLIRELSQKKQNLLLELRNYEENAKAELASPLNEADGHRGIIPANTRLHTTLSVSLGNETQTAHTELRISTSNDTIIRAVLIFAEGIFTGESHVVHPSIHNLSSSICIPIVPPKDVPVDLHLKAFVGYRSSTQFHVFESTRQLPRFSMYALTSLDPASEPISYVNFTIAERAQRVVVWLGQNFLLPEDTHIQNAPFQVCFTSLRNGGHLHIKIKLSGEITINTDDIDLAGDIIQSMASFFAIEDLQVEADFPVYFEELRKVLVKVDEYHSVHQKLSADMADHSNLIRSLLVGAEDARLMRDMKTMKSRYMELYDLNRDLLNGYKIRCNNHTELLGNLKAVNQAIQRAGRLRVGKPKNQVITACRDAIRSNNINTLFKIMRVGTASS
partner: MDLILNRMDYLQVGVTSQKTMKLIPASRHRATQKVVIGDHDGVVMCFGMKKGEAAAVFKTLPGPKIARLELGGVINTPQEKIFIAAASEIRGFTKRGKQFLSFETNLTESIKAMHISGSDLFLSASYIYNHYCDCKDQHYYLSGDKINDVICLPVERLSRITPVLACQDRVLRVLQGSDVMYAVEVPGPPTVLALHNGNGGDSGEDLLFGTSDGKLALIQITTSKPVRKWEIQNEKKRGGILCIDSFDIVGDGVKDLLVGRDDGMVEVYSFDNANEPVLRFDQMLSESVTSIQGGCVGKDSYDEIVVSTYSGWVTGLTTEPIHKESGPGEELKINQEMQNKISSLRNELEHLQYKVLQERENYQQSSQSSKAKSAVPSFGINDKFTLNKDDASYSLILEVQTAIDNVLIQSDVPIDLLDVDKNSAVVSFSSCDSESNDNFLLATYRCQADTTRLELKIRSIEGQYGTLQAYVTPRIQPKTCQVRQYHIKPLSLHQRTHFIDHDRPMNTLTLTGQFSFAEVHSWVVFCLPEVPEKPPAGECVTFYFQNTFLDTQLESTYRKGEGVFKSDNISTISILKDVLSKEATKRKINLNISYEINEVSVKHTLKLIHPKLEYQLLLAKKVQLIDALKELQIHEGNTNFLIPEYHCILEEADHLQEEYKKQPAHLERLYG

Variants of: B1
Details: with BBS7, Q8IWZ6-2
V451E was tested, and the “effect of a mutation on the interaction” value was “with no effect”. V451A was tested, and the “effect of a mutation on the interaction” value was “with no effect”. V451K was tested, and the “effect of a mutation on the interaction” value was “with no effect”. In the case of D450E, the “effect of a mutation on the interaction” value is reported as “with no effect”. In the case of D450K, the “effect of a mutation on the interaction” value is reported as “disrupting interaction strength”. D450A was tested, and the “effect of a mutation on the interaction” value was “with no effect”. In the case of S466E, the “effect of a mutation on the interaction” value is reported as “disrupting interaction strength”. S466A was tested, and the “effect of a mutation on the interaction” value was “with no effect”. For S466K, the “effect of a mutation on the interaction” value was “with no effect”. In the case of I496A, the “effect of a mutation on the interaction” value is reported as “with no effect”. With I496K the “effect of a mutation on the interaction” value was “with no effect”. With I496E the “effect of a mutation on the interaction” value was “with no effect”. In the case of H456E, the “effect of a mutation on the interaction” value is reported as “with no effect”. For H456A, the “effect of a mutation on the interaction” value was “with no effect”. For H456K, the “effect of a mutation on the interaction” value was “with no effect”. For V471E, the “effect of a mutation on the interaction” value was “with no effect”. With V471A the “effect of a mutation on the interaction” value was “with no effect”. In the case of V471K, the “effect of a mutation on the interaction” value is reported as “with no effect”. In the case of A485K, the “effect of a mutation on the interaction” value is reported as “with no effect”. With A485S the “effect of a mutation on the interaction” value was “disrupting interaction strength”. With A485E the “effect of a mutation on the interaction” value was “with no effect”. S465E was tested, and the “effect of a mutation on the interaction” value was “with no effect”. In the case of S465A, the “effect of a mutation on the interaction” value is reported as “with no effect”. In the case of S465K, the “effect of a mutation on the interaction” value is reported as “with no effect”. R464A was tested, and the “effect of a mutation on the interaction” value was “with no effect”. R464E was tested, and the “effect of a mutation on the interaction” value was “with no effect”. R464K was tested, and the “effect of a mutation on the interaction” value was “with no effect”. With R464T the “effect of a mutation on the interaction” value was “disrupting interaction strength”. For G462E, the “effect of a mutation on the interaction” value was “with no effect”. G462K was tested, and the “effect of a mutation on the interaction” value was “with no effect”. For G462A, the “effect of a mutation on the interaction” value was “with no effect”. With Y484K the “effect of a mutation on the interaction” value was “with no effect”. With Y484S the “effect of a mutation on the interaction” value was “disrupting interaction strength”. With Y484Q the “effect of a mutation on the interaction” value was “disrupting interaction strength”. For Y484E, the “effect of a mutation on the interaction” value was “with no effect”. For Y484A, the “effect of a mutation on the interaction” value was “disrupting interaction strength”. For S497E, the “effect of a mutation on the interaction” value was “with no effect”. S497K was tested, and the “effect of a mutation on the interaction” value was “with no effect”. S497A was tested, and the “effect of a mutation on the interaction” value was “with no effect”. For F472K, the “effect of a mutation on the interaction” value was “with no effect”. In the case of F472E, the “effect of a mutation on the interaction” value is reported as “with no effect”. For F472A, the “effect of a mutation on the interaction” value was “disrupting interaction strength”. F472L was tested, and the “effect of a mutation on the interaction” value was “disrupting interaction strength”. Y498A was tested, and the “effect of a mutation on the interaction” value was “with no effect”. In the case of Y498K, the “effect of a mutation on the interaction” value is reported as “with no effect”. For Y498E, the “effect of a mutation on the interaction” value was “with no effect”. For L489K, the “effect of a mutation on the interaction” value was “with no effect”. In the case of L489A, the “effect of a mutation on the interaction” value is reported as “with no effect”. With L489E the “effect of a mutation on the interaction” value was “with no effect”. For F469M, the “effect of a mutation on the interaction” value was “disrupting interaction strength”. For F469S, the “effect of a mutation on the interaction” value was “disrupting interaction strength”. With F469E the “effect of a mutation on the interaction” value was “with no effect”. For F469K, the “effect of a mutation on the interaction” value was “with no effect”. With F469A the “effect of a mutation on the interaction” value was “with no effect”. In the case of F460E, the “effect of a mutation on the interaction” value is reported as “with no effect”. F460A was tested, and the “effect of a mutation on the interaction” value was “with no effect”. In the case of F460K, the “effect of a mutation on the interaction” value is reported as “with no effect”. With P491A the “effect of a mutation on the interaction” value was “with no effect”. P491E was tested, and the “effect of a mutation on the interaction” value was “with no effect”. P491K was tested, and the “effect of a mutation on the interaction” value was “with no effect”. For S482K, the “effect of a mutation on the interaction” value was “with no effect”. In the case of S482A, the “effect of a mutation on the interaction” value is reported as “with no effect”. For S482E, the “effect of a mutation on the interaction” value was “disrupting interaction strength”. With F481A the “effect of a mutation on the interaction” value was “with no effect”. F481K was tested, and the “effect of a mutation on the interaction” value was “disrupting interaction strength”. For F481E, the “effect of a mutation on the interaction” value was “disrupting interaction strength”. In the case of P448K, the “effect of a mutation on the interaction” value is reported as “with no effect”. For P448E, the “effect of a mutation on the interaction” value was “with no effect”. In the case of P448A, the “effect of a mutation on the interaction” value is reported as “with no effect”. With K458A the “effect of a mutation on the interaction” value was “with no effect”. With K458E the “effect of a mutation on the interaction” value was “with no effect”. In the case of A459K, the “effect of a mutation on the interaction” value is reported as “disrupting interaction strength”. In the case of A459E, the “effect of a mutation on the interaction” value is reported as “with no effect”. For V499E, the “effect of a mutation on the interaction” value was “disrupting interaction strength”. For V499A, the “effect of a mutation on the interaction” value was “with no effect”. For V499K, the “effect of a mutation on the interaction” value was “disrupting interaction strength”. In the case of Y463A, the “effect of a mutation on the interaction” value is reported as “disrupting interaction strength”. In the case of Y463E, the “effect of a mutation on the interaction” value is reported as “with no effect”. For Y463K, the “effect of a mutation on the interaction” value was “with no effect”. In the case of S488A, the “effect of a mutation on the interaction” value is reported as “with no effect”. With S488E the “effect of a mutation on the interaction” value was “with no effect”. S488R was tested, and the “effect of a mutation on the interaction” value was “disrupting interaction strength”. S488K was tested, and the “effect of a mutation on the interaction” value was “with no effect”. P495E was tested, and the “effect of a mutation on the interaction” value was “with no effect”.
